Residue numbers refer to the chain shown, from its start.
B1: Anti-CLL-1 Binder Clone 20 (VHH, not shown: small tags and cut ends)
VHH: QVQLVQSGGGLVQPGGSLRLSCAASDFSFSYYEMSWVRQAPGKGLEWVSTISGSGDSTYYADSVKGRFTISRDNTKNTLYLQMNTLRAEDTATYYCMTDGETWGTHRYTVYWGQGALVTVSS
B2: Anti-CLL-1 Binder Clone 12 (scFv, not shown: small tags and cut ends)
scFv: DIQMTQSPSSLSASVGDRVTITCQASQDISNYLNWYQQKPGKAPKLLIYDASNLETGVPSRFSGSGSGTDFTLTISSPQPEDLATYYCQQANSFPFTFGQGTKVEIKGGGGSGGGGSGGGGSQVQLVQSGAEVKKPGSSVKVSCKASGYSFTRNDITWVRQANGRGLEWLGRLNPNNGDTVYAEVFQGRVAMTRDTSTDTAYMELASLKSDDTAVYFCARGFWSFDVWGQGTMVTVSS
B3: Anti-CLL-1 Binder Clone 11 (scFv, not shown: small tags and cut ends)
scFv: QSVLTQPASVSGSPGQSITISCTGTSSDVGASNSVSWYQRHPGKPPKLMIYDVSNRPSGISNRFSGSKSGNTASLTISGLQSEDEADYYCSSYTGSSTFVVFGGGTQLIILGGGGSGGGGSGGGGSEVQLVESGGGVVQPGGSLRLSCAASGFTFSSYWMSWVRQAPGKGLEWVANIRQDGSEKYYVDSVKGRFTISRDNAKNSLYLQMNSLRAEDAAVYYCAREQDTAMVAFDYWGQGTLVTVSS
B4: Anti-CLL-1 Binder Clone 40 (scFv, not shown: small tags and cut ends)
scFv: QSVLTQPPSVSAAPGQKVTISCSGSSSNIGNNYVSWYQQLPGTAPKLLIYDNNKRPSGIPDRFSGSESGTSATLGITGLQTGDEADYYCGTWDSSLSAWVFGGGTQLIILGGGGSGGGGSGGGGSQVQLQQSGPGLVKPSQTLSLTCAISGDSVSSNSAAWNWIRQSPSRGLEWLGRTHYRSKWYNDYAVSVKSRITISADTSKNQFSLQLNSVTPEDTAVYYCARDRYTVRPDAFDIWGQGTTVTVSS
B5: Anti-CLL-1 Binder Clone 6 (scFv, not shown: small tags and cut ends)
scFv: QSVLTQPPSVSAAPGQKVSIFCSGGSSNIGKNYVSWYQQLPGTAPKLLIYENQHRPSGIPDRFSGSKSGTSATLGITGLQTGDEADYYCATWDDSLSAGVFGGGTELTVLGGGGSGGGGSGGGGSQLVQSGAEVRKPGESLKISCKGSGYSFTSYWIGWVRQMPGKGLEWMGFIYPGDSDTRYSPSFQGQVTISADKSISTAYLQRSSLKASDTAMYYCARLGGYSGYDSEVFYLDYWGQGTTVTVSS
B6: Anti-CLL-1 Binder Clone 4 (scFv, not shown: small tags and cut ends)
scFv: QSVVTQPPSVSAAPGQKVTISCSGSSPNIGKNYVSWYQQLPGTAPKLLIYDNNKRPSGIPDRFSGSKSGTSATLGITGLQTGDEADYYCGTWDSSLSGYVFGTGTKVTVLGGGGSGGGGSGGGGSQVQLVESGGGVVQPGRSLRLSCAASGFTFSSYGMHWVRQAPGKGLEWVAFISHDGSNKYYADSVKGRSTISRDNSKSTLFLQMNSLRDEDTAVYFCAREGQLTTSWDFFDYWGHGTLVTVSS
B7: Anti-CLL-1 Binder Clone 2 (scFv, not shown: small tags and cut ends)
scFv: QSVLTQPLSVSVALGQTARITCGGNNIGSKNVHWYQQKAGQAPVLVIQRDSNRPSGIPERFSGSNSGNTATLTISRAQAGDEADYFCQVWDSNTYVFGTGTKLTVLGGGGSGGGGSGGGGSEVQLVESGGGLVKPGGSLRLSCAASGFTFSDYYMSWIRQAPGKGLEWVSYISSSGSTIYYADSVKGRFTISRDNAKNSLYLQMNSLRDEDTAVYYCARQSAEIVGAFDHWGQGTMVTVSS
B8: Anti-CLL-1 Binder Clone 10 (scFv, not shown: small tags and cut ends)
scFv: DIQMTQSPSFLSASVGDRVTITCRASQGISSYLAWYQQKPGKAPKLLIYSASSLQSGVPSRFSGSGSGTDFTLTISSLQPEDFATYYCQQSYNSPTFGQGTRLEIKGGGGSGGGGSGGGGSQVQLVQSGAEVKKPGASVKVSCKASGYTFTGYYMHWVRQAPGQGLEWMGWMNPNSGNTGYAQKFQGRVTMTRNTSISTAYLELTSLTSDDTAVYYCARGDTGDFFDHWGQGTLVTVSS
B9: Anti-CLL-1 Binder Clone 41 (scFv, not shown: small tags and cut ends)
scFv: QSVLTQPASVSGSLGQSITISCTGTSRDVGGYNFVSWYQQHPGKAPKLIIFDVTTRPSGLSDRFSASKSGNTASLTISGLQAEDEADYFCGSYTASDTMLFGGGTKLTVLGGGGSGGGGSGGGGSQVQLLESGGGVVQPGRSLRLSCAASGFTFDDYAMHWVRQAPGKGLEWVSGISWNSGSIGYADSVKGRFTVSRDNSKNTLYQQMNGLRAEDTAVYYCAREGRPTAFDYWGQGTTVTVSS
B10: Anti-CLL-1 Binder Clone 38 (scFv, not shown: small tags and cut ends)
scFv: DIQMTQSPSTLSASVGDRVTITCRASQSISSWLAWYQQKPGKAPKLLIYTASSLQSGVPSRFSGSESGTDFTLTISSLQPEDFATYYCQQSYSTPLTFGGGTKVDIKGGGGSGGGGSGGGGSQVQLVQSGAEVKKPGASVKVSCKASGYTFTGYYMHWVRQAPGQGLEWMGWINPNSGGTNYAQKFQGRVTLTRDTSITTAYLELTSLTSDDTAVYYCARGDTGDFFDHWGQGTLVTVSS
B11: Anti-CLL-1 Binder Clone 97 (VHH)
VHH: QVQLVQSGGGLVQPGGSLRLSCAASDFDFDDDSMDWVRQAPGKGLEWIGSVLHDGATYYNPSLKSRVTISRDNSKNTLYLQMNTLRAEDTATYYCTRSALYGDAAFDVWAQGTMVTVSS
B12: Anti-CLL-1 Binder Clone 100 (VHH)
VHH: B11 VHH with G44A, L52S, H53Y, D54S, A56Q, Y58F, T92M
B13: Anti-CLL-1 Binder Clone 101 (VHH)
VHH: B11 VHH with D30A, G44A, V51I, L52F, H53Y, D54S, A56T, T92V
B14: Anti-CLL-1 Binder Clone 94 (VHH)
VHH: QVQLVQSGGGLVQPGGSLRLSCAASYFDFAAYDMDWVRQAPGQRLEWVAKISHDGSYSWYADSVKGRFTISRDNSKNTLYLQMNTLRAEDTAVYYCVRGEGGSERADYWGRGTLVTVSS
B15: Anti-CLL-1 Binder Clone 98 (VHH)
VHH: QVQLVQSGGGLVQPGGSLRLSCAASDFYFDDYEMSWVRQAPGQRLEWVSLISSDGTTYYADSVKGRFTISRDNSKNTLYLQMNTLRAEDTALYYCVRTTDSWELDLWGRGTLVTVSS
B16: Anti-CLL-1 Binder Clone 95 (VHH)
VHH: QVQLVQSGGGLVQPGGSLRLSCAASAFDFDDSSMDWVRQAPGKALEWIGSISYFGSTYYNPSLKSRVTISRDNSKNTLYLQMNTLRAEDTATYYCTRSALYGDAAFDVWAQGTTVTVS
B17: Anti-CLL-1 Binder Clone 102 (VHH)
VHH: QVQLVQSGGGLVQPGGSLRLSCAASYFSFADYEMSWVRQAPGQRLEWVAVVSKDGNELYYADSVKGRFTISRDNSKNTLYLQMNTLRAEDTAVYYCVKDPYDFWSGYYSNWGQGTLVTVSS
B18: Anti-CLL-1 Binder Clone 96 (VHH)
VHH: QVQLVQSGGGLVQPGGSLRLSCAASYFDFSYYEMSWVRQAPGKGLEWVSLMSGNGGSTYYADSVKGRFTISRDNSKNTLYLQMNTLRAEDTATYYCVAHSSTWFSWGQGTLVTVSS
B19: Anti-CLL-1 Binder Clone 99 (VHH)
VHH: QVQLVQSGGGLVQPGGSLRLSCAASAFDFYSYEMSWVRQAPGKGLEWVSYIGPIGTDIGYADSVKGRFTISRDNSKNTLYLQMNTLRAEDTAMYYCAKDPYYDSTGLTSYWGQGTLVTVSS

What follows are binders tested against biotinylated recombinant human CLL-1 extracellular domain protein, isoform with glutamine at amino acid position 244 (human) (UniProt Q5QGZ9) (assay: Blitz (CLL-1-Q244)).
Chain of biotinylated recombinant human CLL-1 extracellular domain protein, isoform with glutamine at amino acid position 244 (human) (Q5QGZ9 65-265): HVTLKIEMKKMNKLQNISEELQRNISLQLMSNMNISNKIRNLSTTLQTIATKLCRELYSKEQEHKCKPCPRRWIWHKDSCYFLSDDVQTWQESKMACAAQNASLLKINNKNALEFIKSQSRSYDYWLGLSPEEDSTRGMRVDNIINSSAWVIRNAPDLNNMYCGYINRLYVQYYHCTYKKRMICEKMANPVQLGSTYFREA

| Kd | Binder |
| --- | --- |
| 33 nM | B1 |
| 45 nM | B2 |
| 41 nM | B3 |
| 14 nM | B4 |
| 11 nM | B5 |
| 13 nM | B6 |
| 70 nM | B7 |
| 21 nM | B8 |
| 306 nM | B9 |
| 14 nM | B10 |

The binders below were run against biotinylated recombinant human CLL-1 extracellular domain protein, isoform with glutamine at amino acid position 244 (human) (UniProt Q5QGZ9) (assay: BLItz, 1:1 model (Q244 per FIG. 12B)).

| Kd | koff | kon | Binder |
| --- | --- | --- | --- |
| 33 nM | 0.0035 s⁻¹ | 110000 M⁻¹ s⁻¹ | B1 |
| 45 nM | 0.0034 s⁻¹ | 76000 M⁻¹ s⁻¹ | B2 |
| 41 nM | 0.0023 s⁻¹ | 59000 M⁻¹ s⁻¹ | B3 |
| 14 nM | 0.00081 s⁻¹ | 58000 M⁻¹ s⁻¹ | B4 |
| 11 nM | 0.00029 s⁻¹ | 27000 M⁻¹ s⁻¹ | B5 |
| 13 nM | 0.00057 s⁻¹ | 43000 M⁻¹ s⁻¹ | B6 |
| 70 nM | 0.0033 s⁻¹ | 47000 M⁻¹ s⁻¹ | B7 |
| 21 nM | 0.0013 s⁻¹ | 62000 M⁻¹ s⁻¹ | B8 |
| 306 nM | 0.032 s⁻¹ | 100000 M⁻¹ s⁻¹ | B9 |
| 14 nM | 0.00097 s⁻¹ | 69000 M⁻¹ s⁻¹ | B10 |

The binders below were run against biotinylated recombinant human CLL-1 extracellular domain protein, isoform with glutamine at amino acid position 244 (human) (UniProt Q5QGZ9) (assay: EC50 table, CLL-1 Q244; reciprocals of the ELISA bars of FIG. 8B).

| EC50 | Binder |
| --- | --- |
| 1.3 nM | B11 |
| 0.59 nM | B12 |
| 4.8 nM | B13 |
| 90 nM | B14 |
| 11 nM | B15 |
| 5.3 nM | B16 |
| 2.5 nM | B17 |
| 6.4 nM | B18 |
| 88 nM | B19 |

The binders below were run against biotinylated recombinant human CLL-1 extracellular domain protein, isoform with lysine at amino acid position 244 (human) (UniProt Q5QGZ9) (assay: Octet (CLL-1-K244); variant column says Only Q).
Chain of biotinylated recombinant human CLL-1 extracellular domain protein, isoform with lysine at amino acid position 244 (human) (Q5QGZ9 65-265): as above

| Kd | Binder |
| --- | --- |
| 8.35 nM | B4 |

Each binder was assayed against biotinylated recombinant human CLL-1 extracellular domain protein, isoform with glutamine at amino acid position 244 (human) (UniProt Q5QGZ9) (assay: Exp 2 (= Blitz, CLL-1-Q244 of FIG. 12B)).

| Kd | Binder |
| --- | --- |
| 33 nM | B1 |
| 45 nM | B2 |
| 41 nM | B3 |
| 14 nM | B4 |
| 11 nM | B5 |
| 13 nM | B6 |
| 70 nM | B7 |
| 21 nM | B8 |
| 306 nM | B9 |
| 14 nM | B10 |

Each binder was assayed against biotinylated recombinant human CLL-1 extracellular domain protein, isoform with lysine at amino acid position 244 (human) (UniProt Q5QGZ9) (assay: Octet (CLL-1-K244); variant: Both).

| Kd | Binder |
| --- | --- |
| 5.68 nM | B1 |
| 5.08 nM | B5 |
| 2.61 nM | B8 |
| 1.74 nM | B10 |

What follows are binders tested against biotinylated recombinant human CLL-1 extracellular domain protein, isoform with lysine at amino acid position 244 (human) (UniProt Q5QGZ9) (assay: EC50 table, CLL-1 K244; reciprocals of the ELISA bars of FIG. 8B).

| EC50 | Binder |
| --- | --- |
| 1.3 nM | B11 |
| 0.6 nM | B12 |
| 4.8 nM | B13 |
| 12 nM | B15 |
| 5.1 nM | B16 |
| 2.6 nM | B17 |
| 6.4 nM | B18 |
| 93 nM | B19 |

Each binder was assayed against biotinylated recombinant human CLL-1 extracellular domain protein, isoform with lysine at amino acid position 244 (human) (UniProt Q5QGZ9) (assay: Exp 1 (= Octet, CLL-1-K244 of FIG. 12B)).

| Kd | Binder |
| --- | --- |
| 5.68 nM | B1 |
| 16.6 nM | B3 |
| 8.35 nM | B4 |
| 5.08 nM | B5 |
| 2.61 nM | B8 |
| 1.74 nM | B10 |

These binders were tested against biotinylated recombinant human CLL-1 extracellular domain protein, isoform with lysine at amino acid position 244 (human) (UniProt Q5QGZ9) (assay: Octet (CLL-1-K244); variant column: Q>K).

| Kd | Binder |
| --- | --- |
| 16.6 nM | B3 |
